Reference: PMC5593947 (2017)

What was measured:
[1] = target: T1, Coxsackievirus A6 (CVA6) A-particle (Coxsackievirus A6 strain TW-2007-00141); test: SPR
T1 chain 1: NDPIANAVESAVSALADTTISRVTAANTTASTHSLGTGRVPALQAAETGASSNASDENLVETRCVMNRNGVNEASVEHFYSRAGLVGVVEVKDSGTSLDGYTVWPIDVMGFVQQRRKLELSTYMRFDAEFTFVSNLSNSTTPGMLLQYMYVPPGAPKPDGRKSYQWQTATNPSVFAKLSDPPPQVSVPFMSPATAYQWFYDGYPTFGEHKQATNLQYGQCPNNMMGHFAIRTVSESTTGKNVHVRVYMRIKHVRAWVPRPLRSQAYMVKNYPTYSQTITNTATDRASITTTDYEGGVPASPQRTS
T1 chain 2: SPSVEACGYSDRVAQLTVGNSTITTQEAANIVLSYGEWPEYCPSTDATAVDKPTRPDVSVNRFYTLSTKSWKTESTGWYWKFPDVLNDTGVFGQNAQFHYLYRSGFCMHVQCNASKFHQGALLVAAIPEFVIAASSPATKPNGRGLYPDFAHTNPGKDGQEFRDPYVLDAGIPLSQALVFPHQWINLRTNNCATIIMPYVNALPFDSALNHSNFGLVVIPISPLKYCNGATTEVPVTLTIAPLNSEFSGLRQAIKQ
T1 chain 3: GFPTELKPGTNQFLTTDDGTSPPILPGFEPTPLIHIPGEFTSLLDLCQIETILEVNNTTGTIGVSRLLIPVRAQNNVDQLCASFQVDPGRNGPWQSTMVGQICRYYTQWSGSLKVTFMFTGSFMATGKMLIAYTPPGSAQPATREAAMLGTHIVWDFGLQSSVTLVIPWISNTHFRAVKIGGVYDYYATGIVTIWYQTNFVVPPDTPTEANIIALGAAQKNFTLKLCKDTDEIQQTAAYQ

[2] = target: T1, Coxsackievirus A6 (CVA6) A-particle; test: SPR
[3] = target: T1, Coxsackievirus A6 (CVA6) A-particle; test: SPR
[4] = target: T2, Coxsackievirus A6 (CVA6) procapsid (Coxsackievirus A6 strain TW-2007-00141); test: ELISA
T2 chain 1: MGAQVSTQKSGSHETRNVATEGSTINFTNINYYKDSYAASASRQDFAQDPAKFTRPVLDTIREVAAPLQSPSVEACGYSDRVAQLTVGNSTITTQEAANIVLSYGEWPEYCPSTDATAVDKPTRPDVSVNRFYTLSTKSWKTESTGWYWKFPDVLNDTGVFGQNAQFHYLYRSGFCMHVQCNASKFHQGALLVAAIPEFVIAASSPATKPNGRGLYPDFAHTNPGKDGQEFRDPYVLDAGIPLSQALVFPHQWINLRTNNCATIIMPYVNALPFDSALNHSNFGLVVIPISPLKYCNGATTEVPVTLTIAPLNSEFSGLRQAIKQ
T2 chain 2: T1 chain 1
T2 chain 3: T1 chain 3

B1: neutralizing monoclonal antibody 1D5 (antibody, V domains shown)
VH: EVQLVESGGGLVKPGGSLKLSCAASGFAFSTYDMSWVRQTPEKRLELVAHISSGGGYIYYPDTVKGRFTISRDNAKNTLYLQMSSLKSEDTAMYYCTRQKGLYYGFDYWGQGTTLTVSS
VL: DIVMTQSHKFMSTSVGDRVSITCKASQDVNTAVAWYQQRPGQSPKLLIYSASYRYTGVPDRFTGSGSGTDFTFTISSVQAEDLAVYYCQQHYTTPHTFGGGTKLEIK
In the case of B1, the Kd [1] is reported as 4.14 nM, the Ka [2] is reported as 2.41e+08 M⁻¹ and the koff [3] is reported as 0.000634 s⁻¹. For the same binder, the EC50 [4] was 0.069 µg/mL.
